Positions of bridges follow the written chain, without caps; N, C: chain ends. Non-standard residues stand in square brackets, D forms with d. 1Nal = N[C@@H](Cc1cccc2ccccc12)C(=O)O; 2Nal = N[C@@H](Cc1ccc2ccccc2c1)C(=O)O; Sar = CNCC(=O)O

Consider 5 molecules from US20220306695A1, “COMPSTATIN ANALOGUES AND THEIR MEDICAL USES” (priority 2019, published 2022).

B1: Compound 44 (peptide)
peptide: Ac-EGSAICIWQDWGEHRC[Sar]EGE-NH2
modifications: disulfide 6-16
SMILES: CC[C@H](C)[C@H](NC(=O)[C@H](C)NC(=O)[C@H](CO)NC(=O)CNC(=O)[C@H](CCC(=O)O)NC(C)=O)C(=O)N[C@H]1CSSC[C@@H](C(=O)N(C)CC(=O)N[C@@H](CCC(=O)O)C(=O)NCC(=O)N[C@@H](CCC(=O)O)C(N)=O)NC(=O)[C@H](CCCNC(=N)N)NC(=O)[C@H](Cc2c[nH]cn2)NC(=O)[C@H](CCC(=O)O)NC(=O)CNC(=O)[C@H](Cc2c[nH]c3ccccc23)NC(=O)[C@H](CC(=O)O)NC(=O)[C@H](CCC(N)=O)NC(=O)[C@H](Cc2c[nH]c3ccccc23)NC(=O)[C@H]([C@@H](C)CC)NC1=O
B2: Compound 45 (peptide)
peptide: Ac-EGSAFCIWQDWGEHRC[Sar]E-NH2
modifications: disulfide 6-16
SMILES: CC[C@H](C)[C@@H]1NC(=O)[C@@H](NC(=O)[C@H](Cc2ccccc2)NC(=O)[C@H](C)NC(=O)[C@H](CO)NC(=O)CNC(=O)[C@H](CCC(=O)O)NC(C)=O)CSSC[C@@H](C(=O)N(C)CC(=O)N[C@@H](CCC(=O)O)C(N)=O)NC(=O)[C@H](CCCNC(=N)N)NC(=O)[C@H](Cc2c[nH]cn2)NC(=O)[C@H](CCC(=O)O)NC(=O)CNC(=O)[C@H](Cc2c[nH]c3ccccc23)NC(=O)[C@H](CC(=O)O)NC(=O)[C@H](CCC(N)=O)NC(=O)[C@H](Cc2c[nH]c3ccccc23)NC1=O
B3: Compound 41 (peptide)
peptide: Ac-SAICIWQDWGEHRC[Sar]E-NH2
modifications: disulfide 4-14
SMILES: CC[C@H](C)[C@H](NC(=O)[C@H](C)NC(=O)[C@H](CO)NC(C)=O)C(=O)N[C@H]1CSSC[C@@H](C(=O)N(C)CC(=O)N[C@@H](CCC(=O)O)C(N)=O)NC(=O)[C@H](CCCNC(=N)N)NC(=O)[C@H](Cc2c[nH]cn2)NC(=O)[C@H](CCC(=O)O)NC(=O)CNC(=O)[C@H](Cc2c[nH]c3ccccc23)NC(=O)[C@H](CC(=O)O)NC(=O)[C@H](CCC(N)=O)NC(=O)[C@H](Cc2c[nH]c3ccccc23)NC(=O)[C@H]([C@@H](C)CC)NC1=O
B4: Compound 52 (peptide)
peptide: Ac-ICI[2Nal]QDWGEHRCTGAES-NH2
modifications: disulfide 2-12
SMILES: CC[C@H](C)[C@H](NC(C)=O)C(=O)N[C@H]1CSSC[C@@H](C(=O)N[C@H](C(=O)NCC(=O)N[C@@H](C)C(=O)N[C@@H](CCC(=O)O)C(=O)N[C@@H](CO)C(N)=O)[C@@H](C)O)NC(=O)[C@H](CCCNC(=N)N)NC(=O)[C@H](Cc2c[nH]cn2)NC(=O)[C@H](CCC(=O)O)NC(=O)CNC(=O)[C@H](Cc2c[nH]c3ccccc23)NC(=O)[C@H](CC(=O)O)NC(=O)[C@H](CCC(N)=O)NC(=O)[C@H](Cc2ccc3ccccc3c2)NC(=O)[C@H]([C@@H](C)CC)NC1=O
B5: Compound 56 (peptide)
peptide: Ac-EGSAFCI[1Nal]QDWGEHRCTE-NH2
modifications: disulfide 6-16
SMILES: CC[C@H](C)[C@@H]1NC(=O)[C@@H](NC(=O)[C@H](Cc2ccccc2)NC(=O)[C@H](C)NC(=O)[C@H](CO)NC(=O)CNC(=O)[C@H](CCC(=O)O)NC(C)=O)CSSC[C@@H](C(=O)N[C@H](C(=O)N[C@@H](CCC(=O)O)C(N)=O)[C@@H](C)O)NC(=O)[C@H](CCCNC(=N)N)NC(=O)[C@H](Cc2c[nH]cn2)NC(=O)[C@H](CCC(=O)O)NC(=O)CNC(=O)[C@H](Cc2c[nH]c3ccccc23)NC(=O)[C@H](CC(=O)O)NC(=O)[C@H](CCC(N)=O)NC(=O)[C@H](Cc2cccc3ccccc23)NC1=O

Chain of Human C3 (P01024 23-1663 limits assumed): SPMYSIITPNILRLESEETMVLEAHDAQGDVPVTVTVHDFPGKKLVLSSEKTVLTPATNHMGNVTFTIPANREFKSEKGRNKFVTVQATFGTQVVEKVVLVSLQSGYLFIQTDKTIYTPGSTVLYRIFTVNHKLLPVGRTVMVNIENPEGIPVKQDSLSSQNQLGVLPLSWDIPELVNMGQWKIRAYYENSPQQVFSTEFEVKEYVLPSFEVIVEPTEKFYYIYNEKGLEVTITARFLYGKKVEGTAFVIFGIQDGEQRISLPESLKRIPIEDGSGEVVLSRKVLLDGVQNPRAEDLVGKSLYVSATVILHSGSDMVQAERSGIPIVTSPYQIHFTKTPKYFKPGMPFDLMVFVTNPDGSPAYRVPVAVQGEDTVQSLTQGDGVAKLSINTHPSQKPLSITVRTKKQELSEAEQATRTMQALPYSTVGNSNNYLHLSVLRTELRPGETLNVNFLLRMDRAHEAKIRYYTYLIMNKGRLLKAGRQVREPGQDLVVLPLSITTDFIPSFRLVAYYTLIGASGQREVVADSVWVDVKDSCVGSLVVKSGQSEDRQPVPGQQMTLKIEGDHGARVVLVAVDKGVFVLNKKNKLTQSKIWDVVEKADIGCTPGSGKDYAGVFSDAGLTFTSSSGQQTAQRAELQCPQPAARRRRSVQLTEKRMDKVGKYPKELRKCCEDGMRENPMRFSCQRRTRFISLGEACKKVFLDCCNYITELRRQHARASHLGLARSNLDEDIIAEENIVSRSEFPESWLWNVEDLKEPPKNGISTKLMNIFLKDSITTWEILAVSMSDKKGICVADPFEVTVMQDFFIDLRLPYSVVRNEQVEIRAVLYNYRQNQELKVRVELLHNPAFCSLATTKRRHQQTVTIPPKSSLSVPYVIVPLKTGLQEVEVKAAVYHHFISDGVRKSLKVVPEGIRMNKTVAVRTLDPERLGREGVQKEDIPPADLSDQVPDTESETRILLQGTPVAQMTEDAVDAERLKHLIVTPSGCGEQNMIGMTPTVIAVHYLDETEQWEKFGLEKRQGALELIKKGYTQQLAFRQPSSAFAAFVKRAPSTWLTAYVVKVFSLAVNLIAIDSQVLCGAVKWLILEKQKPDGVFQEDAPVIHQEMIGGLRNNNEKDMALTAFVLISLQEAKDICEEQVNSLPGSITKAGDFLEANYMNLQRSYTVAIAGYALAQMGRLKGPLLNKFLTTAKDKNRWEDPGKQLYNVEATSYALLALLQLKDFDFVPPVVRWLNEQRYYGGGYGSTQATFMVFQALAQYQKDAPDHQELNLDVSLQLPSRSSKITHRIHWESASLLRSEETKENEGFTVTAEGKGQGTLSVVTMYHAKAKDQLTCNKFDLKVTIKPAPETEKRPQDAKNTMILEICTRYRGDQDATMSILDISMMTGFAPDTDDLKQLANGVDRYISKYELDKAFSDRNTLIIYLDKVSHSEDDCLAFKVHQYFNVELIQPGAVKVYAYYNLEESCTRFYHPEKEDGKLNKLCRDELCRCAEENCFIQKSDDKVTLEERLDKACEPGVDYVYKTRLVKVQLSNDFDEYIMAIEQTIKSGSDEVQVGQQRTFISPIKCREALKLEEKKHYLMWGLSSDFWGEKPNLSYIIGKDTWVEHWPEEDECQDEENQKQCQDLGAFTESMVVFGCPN

The assay has as its target Human C3 (human, UniProt P01024 23-1663). Kind of assay: cell-based or functional assay.
On to B1, for which the IC50[nM], inhibition of hemolysis is less than 250 nM.

In the case of B2, the IC50[nM], inhibition of hemolysis is less than 100 nM.

As to B3, the IC50[nM], inhibition of hemolysis is less than 250 nM.

Consider B4, for which the IC50[nM], inhibition of hemolysis was less than 100 nM.

In turn, B5 showed an IC50[nM], inhibition of hemolysis of less than 100 nM.
